# Measured values taken from patent US12534541B2, “Anti-PTK7 antibody and uses thereof” (MABCARE THERAPEUTICS, priority 2023, dated 2026).
# B1: h6M24-vc0101: control drug: h6M24 (cofetuzumab) linked to Aur0101 via mc-VC-PAB linker, DAR about 4 (conjugate, chains of the INN, looked up)
# VH: QVQLVQSGPEVKKPGASVKVSCKASGYTFTDYAVHWVRQAPGKRLEWIGVISTYNDYTYNNQDFKGRVTMTRDTSASTAYMELSRLRSEDTAVYYCARGNSYFYALDYWGQGTSVTVSS
# VL: EIVLTQSPATLSLSPGERATLSCRASESVDSYGKSFMHWYQQKPGQAPRLLIYRASNLESGIPARFSGSGSGTDFTLTISSLEPEDFAVYYCQQSNEDPWTFGGGTKLEIK
# modifications: Aur0101 via mc-VC-PAB linker, DAR 4
# Tests used:
# [1] = system: cervical squamous cell carcinoma PDX LD1-0010-362343; assay: In vivo anti-tumor activity against human cervical squamous cell carcinoma PDX LD1-0010-362343; settings: NU/NU mice, i.v. 5 mg/kg, once a week, 2 doses, vs negative control
# Experimental: 6-week-old NU/NU mice, female, weighing 18-21 g, were purchased from Beijing Vital River Laboratory Animal Technology Co., Ltd. The mice were subcutaneously inoculated with cervical squamous cell carcinoma tumor mass (specimen no. 362343, obtained from Xi'an LIDE Biotech Co. Ltd.). When the average tumor volume reached 150 mm^3, the antibody-drug conjugate Ab13-T1000-exatecan as prepared in Example 5 was administered intravenously at a dose of 10 mg/kg, the antibody-drug conjugate h6M24-vc0101 as prepared in Example 8 was administered intravenously at a dose of 5 mg/kg, and a negative control Vehicle group was set and administered intravenously with PBS at an equal dose, once a week for a total of 2 doses. After dosing, the tumor volume was measured twice a week using a vernier caliper and calculated according to the following formula: TV=(length*width^2)/2.
# [2] = system: small cell lung cancer PDX LD1-2025-362797; assay: In vivo anti-tumor activity against human small cell lung cancer PDX LD1-2025-362797; settings: NU/NU mice, i.v. 5 mg/kg, 1 dose, vs negative control
# Experimental: 6-week-old NU/NU mice, female, weighing 18-21 g, were purchased from Beijing Vital River Laboratory Animal Technology Co., Ltd. The mice were subcutaneously inoculated with small cell lung cancer tumor mass (specimen no. 362797, obtained from Xi'an LIDE Biotech Co. Ltd.). When the average tumor volume reached 150 mm^3, the antibody-drug conjugates Ab13-T1000-exatecan and h6M24-T1000-exatecan as prepared in Example 5 were administered intravenously at a dose of 10 mg/kg, respectively, the antibody-drug conjugate h6M24-vc0101 as prepared in Example 8 was administered intravenously at a dose of 5 mg/kg, and a negative control Vehicle group was set and administered intravenously with PBS at an equal dose, once a week for a total of 1 dose. After dosing, the tumor volume was measured twice a week using a vernier caliper and calculated according to the following formula: TV=(length*width^2)/2.
molecule,measurement,setting,value
B1,tumor growth inhibition (tumor volume over time),[1],significantly inhibit tumor growth
same,tumor growth inhibition (tumor volume over time),[2],does not produce any tumor growth inhibitory effect
